B1: OR4K15 (parent)
chain: GUUAACGGUCAUAGGCCAUGGAAACUAGGAGCACCAUUUCGCUGCCAGUGAAGAAAUGAACAAAGAAAAUCUGGGCCAGGCAGGCAUCAAAAGAAAUAGUCUUGCGCUCAACCAGAAAGUCUGUAAUCAUUUUAAGGGUA

Variants of: B1
Experiment: self-cleavage, relative activity (ratio to wild type); higher = more cleavage; in vitro, sequencing; the parent is a self-cleaving ribozyme

Variant	self-cleavage
A30G A69G	1.27
A30G G123U	0.53
A30U U37C	0.84
A30C A111G	0.07
A30G A111G	0.05
G28A A129G	0.99
A33C A89G	1.31
G31U A60G	1.37
A30G A68G	1.49
G28A A110G	0.17
A27U U108C	0.03
G29U A59G	1.31
C32G A54U	1.14
C32U A51G	1.88
A30U G93A	1.63
G28C A64G	0.77
A30G G44A	1.15
G29C U108A	0.02
A30U C107A	0.01
A30G U39A	0.39
A30G U39C	1.05
G31A U43A	2.08
A27U A91G	1.19
A27U U102C	2.12

Variant	self-cleavage
A33G A90G	0.46
A27U U87A	1.48
G31C U133C	1.95
A33C U38C	1.53
A30U A56G	0.82
G28U U49A	2.04
A30G G79A	0.17
G28A A68G	2.39
G29U A63G	2.9
A30U A91G	1.35
A30U A55G	1.55
C32A U132C	0.85
C32U A69G	1.21
A30G A56U	1.02
A30G A56G	1.27
C32U A95G	2.11
C32U A55G	0.65
C32U U72C	0.2
A30G A55G	1.14
A30C A96G	1.43
G31U A129G	1.78
C32A U87C	1.38
A30U U43C	1.88
G31A A69U	2.21

Variant	self-cleavage
A30U A60G	0.45
A30C U38C	1.02
A30G A66U	1.22
A30G A66G	1.21
G28A A55C	1.7
A33G A94U	0.59
A30G C101A	0.14
A30G U103A	0.17
G29A A59G	1.26
G31A U38C	1.93
A30G A54G	1.21
A27U G99A	0.6
A33G A111G	0.02
A33C G73A	0.33
A33C A140U	1.4
A30G U133C	1.8
A27U G83A	1.31
G28A U131C	0.99
A30U U120C	1.29
A30U G138A	2.22
G29C C42U	1.06
G28A A52G	1.9
G31A U57C	1.2
A30C A59G	0.35

Variant	self-cleavage
A33G A98U	1.19
C32G A96U	1.87
G28A A78U	0.18
A30G A96U	1.72
A30G A96G	1.25
G31U U102A	2.03
A33G A92U	0.42
A30G A64G	1.35
G28U U100A	0.25
G28U U100C	2.35
C32U C121U	2.22
A30G G106U	0.04
A30G G106A	0.07
A30G	1.28
A30C	1.6
A30U	1.24
C32U C40U	2.05
G31C U87C	2.1
A33C A67U	1.28
A30U A54C	1.77
C32U U57C	1.07
A30U A110G	0.1
G31A A60G	0.77
A30G U37G	1.08

Variant	self-cleavage
A30C A56G	1.27
A30C U103G	0.01
G29A A117G	1.77
A30G U49G	1.48
G28A A114G	0.35
G28U A68G	1.22
C32U U70C	0.69
A27U U132A	1.42
A30U U72C	0.27
A30U U72A	0.27
A33G A67U	1.36
A30G A33G	1.17
A30G U72A	0.36
A30G U72C	0.24
A27U A116G	0.63
A30G G75C	0.19
A33G A125G	0.23
A33G A125U	1.17
G28U A60G	1.57
A33G A126G	0.7
A30U A114U	0.11
A30U A64G	1.56
A30G A95C	1.26
A30G A95U	1.42

Variant	self-cleavage
C32U A67G	1.67
A30U U49A	1.3
A30U U49C	1.48
A30G A86U	1.37
A30G A86G	1.41
G31A U132C	1.72
A30C U108C	0
A30U A129G	1.24
A30U A129U	0.63
G28U A111U	0.3
A30U A116G	1.27
A33G C112G	0.02
G28A U57C	0.4
A30U A47U	0.19
A30G A51G	1.07
G31U A118G	1.06
A30C A68G	0.67
G31A A92G	1.57
A33G A117G	0.7
A33G A117U	0.74
C32A A63G	1.46
G29C U127C	0.39
A30G A114C	0.07
G28U A47G	2.28

Variant	self-cleavage
A30U G115A	0.22
G29A U72C	0.27
G29C A96G	1.67
A30G A67G	0.91
A30U A86G	1.87
A30G U57C	1.29
A27U U43G	1.64
A33G A118U	0.47
A33G A91G	0.29
A33G A60G	0.98
A30C A116G	0.89
A30U A140G	0.96
C32A A110U	2.04
A30C U120C	0.69
A30U A51G	1.55
A30U A36U	1.67
G31A A86U	0.91
G31A A86G	1.75
G31U A47G	1.05
G29A U39A	1.8
A33G A54U	1.04
G31U A92G	1.27
A30G C45U	1.06
A30U A33G	0.69

Variant	self-cleavage
G29A U87C	1.7
G29A U87A	1.79
A33G A89G	0.84
A33G A89U	1.27
A33G A64C	1.17
A33G A64U	0.99
A33G A82G	0.35
A33G A82U	0.1
A30G U100A	0.49
A30G U100C	1.93
G31A A117G	1.42
A30G A89U	1.09
A30G A89C	0.8
A30G A89G	0.71
G29A A96G	2.13
G31A A78G	0.27
G31A A78U	0.43
C32U U102C	1.73
A33G A86U	0.87
G28A A67G	1.55
A30U U127C	0.71
A30U U38C	1.69
G29U A90G	1.1
A27U A96G	1.6

Variant	self-cleavage
G31U A52G	1.71
A30U A52G	1.08
A30G U139C	1.03
A30G U139A	1.46
C32U	1.28
C32A	1.2
C32G	1.25
A27U G53A	1.86
A30G A62C	1.38
A33C U124G	1.02
C32U A78U	0.38
C32U A78G	0.53
G29A A30G	1.16
C32U A60G	1.38
A33C A47G	1.05
C32U A111G	0.01
G31U A36G	2.23
A27U U39A	1.49
A27U U39C	0.93
G29U U102A	1
G29A U124A	0.77
A30U A68U	1.5
G31A A52U	1.32
C32U U124A	0.41

Variant	self-cleavage
G31A U139C	1.82
G31A U139A	1.78
A30G A82G	0.6
A30G A82U	0.25
G28A A56G	1.49
A33C U122C	1.09
A33C U122A	1.61
G29A U97C	1.22
C32U A94G	1.5
A30G C109A	0.23
A30U U102C	1.81
A30G G137A	1.06
A30G G137U	0.71
A30G A59U	1.18
A30G U130C	0.6
A30G U130G	1.09
C32U U38C	1.02
A33G C76U	0.12
G28A C128A	1.34
A30G A47U	1.27
G29A A125G	0.24
G28A U130C	1.2
G31U A54G	1.34
A30U U39A	2.07

Variant	self-cleavage
A30U U39C	0.9
A30U C113U	0.04
A30G C112A	0.02
A30G C112U	0.04
A30U C81U	0.51
G29A A78G	0.28
G31U A111U	0.15
G28A A86U	1.88
A30G A60U	0.79
G31A A55G	1.7
G28A U39C	2.09
G29A U103C	0.77
G28A A98G	0.39
A33C U102C	2.22
A33C G74A	0.38
A27U A118G	1.21
A33G C81U	0.17
G29U A91G	1.67
C32A A56G	0.28
G28U A134C	2.09
C32A C128A	0.81
G29C A91G	1.08
A30U A82G	0.52
A33C G50U	1.41

Variant	self-cleavage
A30U C77U	1.77
A30G U132C	1.36
A30C A125G	0.31
A30G C40A	1.42
A27U A92G	1.83
G31C U139C	1.53
G31A G137U	1.5
A30G A63U	1.17
A33G A129C	0.63
A30G A94G	1.29
A30G C34A	0.85
A30G A110G	0.15
A27U U120A	1.85
A30C A51U	2.04
A27U A125G	0.84
G29A U139C	2.53
G29A U139G	0.86
A30U A118G	1.45
G31A A59U	0.76
G31A A59G	1.04
A33G A135U	0.95
A30G A78U	0.41
A30G A78G	0.11
G28A A89U	1.38

Variant	self-cleavage
G28A	1.09
G28C	0.93
G28U	0.74
A30G U87C	1.39
G31A C105U	0.25
A30G A91U	1.67
A30G A91G	0.24
G29A U131C	0.66
A33C A126G	1.8
A30G G31A	1.61
G29A A56G	1.5
C32A A90G	1.27
A30U A59G	0.34
C32U A110G	0.23
A33G C34A	1.19
A27U U49C	2.12
A30G U38C	1.62
A30G U38A	0.72
A33C A69G	1.71
A30G A126G	1.23
A30G A126U	0.87
A33C A66U	1.52
A30U U100C	2.08
A30G G58A	0.67

Variant	self-cleavage
A30G A90G	1.37
A30G A52G	1.13
A30U U108A	0.05
A33G A69G	0.28
A30G A116C	0.03
A30G A116G	0.66
G28A U97C	0.59
A30U U70A	1.71
A30U U70C	0.71
G29A A54G	1.96
A33G A78G	0.19
C32U C45G	1.23
A33G A96G	0.96
A33C U132C	1.46
A30G C71U	0.62
A30G C105U	0.17
A33G A56C	0.41
A30U A63G	2.01
A30G A117U	0.99
A30G A117C	0.61
A30C A33G	1.9
C32U A86G	1.82

From the RNAGym collection of RNA variant scans (doi:10.7554/elife.90254)
